Reference: patent publication US20250018039A1 (published 2025)

Target: T1, wild-type human RAS (KRAS) peptide on HLA-A*03:01 (human)
T1 peptide: VVVGAGGVGK
Experiment: cytokine release
Procedure: Cos7 cells transduced with human HLA A*03:01 were independently pulsed with the G12V RAS peptide […] (SEQ ID NO: 33) or the corresponding wild-type peptide […] The transduced cells (effector cells) were co-cultured with the peptide-pulsed target cells. Interferon-gamma secretion was measured.

binding result: no recognition
B1: TCR 807 (TCR, V domains shown)
Valpha: QQKVQQSPESLSVPEGGMASLNCTSSDRNFQYFWWYRQHSGEGPKALMSIFSDGDKKEGRFTAHLNKASLHVSLHIRDSQPSDSALYFCAARPGTQVVGQLTFGRGTRLQVYA
Vbeta: AQTIHQWPVAEIKAVGSPLSLGCTIKGKSSPNLYWYWQATGGTLQQLFYSITVGQVESVVQLNLSASRPKDDQFILSTEKLLLSHSGFYLCAWRDRPSSYEQYFGPGTRLTVL
